Assay results as given in US20230228751 (APTAMER DIAGNOSTICS LIMITED, published 2023).

Columns and labels:
[1] = biological target: SARS-CoV-2 spike S2 subunit (SARS-CoV-2, UniProt P0DTC2 SEQ:1-528); experiment: BLI; details: label: 5'-biotin
[2] = biological target: T1, SARS-CoV-2 spike S1 subunit (SARS-CoV-2, UniProt P0DTC2 SEQ:1-670); experiment: BLI; details: tags: His tag, SinoBiological 40591-V08B1; label: 5'-biotin
[3] = biological target: SARS-CoV-2 spike RBD (SARS-CoV-2, UniProt P0DTC2 SEQ:1-223); experiment: BLI; details: tags: His tag, SinoBiological 40592-V08H
[4] = biological target: T2, SARS-CoV spike S1 subunit (SARS-CoV, UniProt P59594 SEQ:14-667); experiment: BLI; details: tags: SinoBiological
[5] = biological target: T3, SARS-CoV-2 spike protein trimer (SARS-CoV-2, UniProt P0DTC2); experiment: ELONA
Procedure: One ELONA plate (immobilised with the S1 binding aptamer A3) was then incubated with a fixed concentration (0.5 μM) of either the aptamer population isolated against the S2 subunit of the SARS-CoV-2 spike protein (S2_8R pool) or full-length aptamer clones S2_A2 (SEQ ID NO: 146), S2_B1 (SEQ ID NO: 150) and S2_G1 (SEQ ID NO: 171) (FIG. 16).

[6] = biological target: T3, SARS-CoV-2 spike protein trimer; experiment: BLI; details: label: 5'-biotin
Source text: The aptamers described herein have been isolated using recombinant proteins which represent portions of the full viral surface spike protein (SEQ ID NO: 117). In particular, an amino acid sequence comprising residues Ser686 to Pro1213 of SEQ ID NO: 119 was used to isolate aptamers against the S2 subunit from the SARS-CoV-2 spike protein. For diagnostic and therapeutic applications of the aptamers, it is desirable that the aptamers are capable of binding to the spike protein in the full trimeric form. For example, any aptamers which bind to regions of the monomer which are not accessible in the trimeric spike may not be capable of binding to the virus and so would be less likely to perform well as a diagnostic or therapeutic. Several of the isolated aptamers and Optimers isolated against the S2 subunit of the SARS-CoV-2 spike protein (SEQ ID NO:119), were assessed for binding to the full trimeric spike using the BLI assay described above. Briefly, exemplar Optimers were immobilised onto BLI sensor probes and assessed for the ability to bind to the full SARS-CoV-2 spike protein trimer at a range of concentrations (500 nM, 166 nM, 55 nM, 18.5 nM, 6.1 nM, 2 nM and 0.6 nM in 1× ‘high salt’ aptamer selection buffer). […] Importantly, each of the S2_A2_F12 SEQ ID NO: 179), S2_B1_F12 SEQ ID NO: 188) and S2_G1_F21 (SEQ ID NO: 190) aptamers has a rapid association rate (0-120 sec) and a slow dissociation rate (120-240 sec); which may be important for many diagnostic applications.

[7] = biological target: T2, SARS-CoV spike S1 subunit; experiment: ELONA; details: tags: SinoBiological; label: 5'-biotin
[8] = biological target: T1, SARS-CoV-2 spike S1 subunit; experiment: BLI; details: tags: His tag, SinoBiological 40591-V08B1; label: 5'-biotin; remark: listed apart in the source
Procedure: The affinity of four chosen aptamers (aptamer S1_A3-A (SEQ ID NO: 4); aptamer S1_A6 (SEQ ID NO: 8); aptamer S1_A8 (SEQ ID NO: 9); aptamer S1_F2 (SEQ ID NO: 43)) was determined using the BLI assay according to the protocol described above. The biotinylated aptamers were immobilised onto streptavidin biosensor probes (as described above) and then interaction monitored with a concentration series of SARS-CoV-2 Spike protein S1 (250 nM, 125 nM, 62.5 nM, 31.25 nM, 15.63 nM, 7.81 nM, 0 nM diluted in 1× ‘high salt’ aptamer selection buffer). KD values were calculated using the ForteBio software (ForteBio Data Analysis 8.0,), using a 2:1 binding model (FIGS. 6 & 7).

Row | Binder | binding result [1] | binding result [2] | binding result ([3]; label: 5' biotin) | binding result ([4]; label: 5' biotin) | further results
1 | S2_A2_F12 (ssDNA) DNA: CCAGTGTAGACTACTCAATGCCGATGGGTCGGGGGGGTGGGTAGGCATTGATCGCTCCTTTCGT | binds |  |  |  | 
2 | S1_F3-A (ssDNA) DNA: CCAGTGTAGACTACTCAATGCGGTATGAATATGATCGGCCCTATCCCTTCAGCTATTCCGGGTACTATCCACAGGTCAACC |  | binds | binds | no binding | 
3 | TTGACCTCTGGATATGGGTGGGAGGGATGGGT (ssDNA) [S2_G1_F21] | binds |  |  |  | 
4 | S2_B1 (ssDNA) DNA: CCAGTGTAGACTACTCAATGCCGTGGACTGGTCGGGTTTGGATTCGGCAGATGAATCAGTAGTACTATCCACAGGTCAACC | binds |  |  |  | binding result [5]: binds
5 | S1_D8 (ssDNA) DNA: CAGTGTAAGACTACTCAATGCCGTGGACTGGTCGGGTTTGGATTCGGCAGATGAATCAGTAGTACTATCCACAGGTCAACC |  | binds | binds | no binding | 
6 | AATGCCGTGGACTGGTCGGGTTTGGATTCGGCA (ssDNA) [S2_B1_F18] | binds |  |  |  | binding result [6]: binds
7 | AATGCGTGGGAAGGGTGGGTGGGAGCATTGATA (ssDNA) [S1_A3_F18] |  | binds |  |  | binding result [7]: no binding
8 | S1_F2 (ssDNA) DNA: CCAGTGTAGACTACTCAATGCTGCGTTGACTTGATCCTGTGGTATATGGGTGGGAGGGTCGGGTACTATCCACAGGTCAACC |  |  |  |  | binding result ([3]; label: 5'-biotin): binds; binding result ([4]; label: 5'-biotin): no binding; binding result [8]: binds
9 | S1_A8 (ssDNA) DNA: CCAGTGTAGACTACTCAATGCTGTGTTGACTTGATCCTGTGGTATATGGGTGGGAGGGTCGGGTACTATCCACAGGTCAACC |  |  |  |  | binding result ([3]; label: 5'-biotin): binds; binding result ([4]; label: 5'-biotin): no binding; binding result [8]: binds
10 | TGGATATGGGTGGGAGGGATGGGT (ssDNA) [S2_G1_F22] | binds |  |  |  | binding result [6]: binds
11 | S2_G1 (ssDNA) DNA: CCAGTGTAGACTACTCAATGCGGCTGTGTGACTTGACCTCTGGATATGGGTGGGAGGGATGGGTACTATCCACAGGTCAACC | binds |  |  |  | binding result [5]: binds
12 | S1_E2 (ssDNA) DNA: CCAGTGTAGACTACTCAATGCGTGTGGTGACCTTGACCTCTGGATATGGGTGGGAGGGGCGGGTACTATCCACAGGTCAACC |  | binds | binds | no binding | 
13 | AATGCCGATGGGTCGGGGGGGTGGG (ssDNA) [S2_A2_F17] | binds |  |  |  | binding result [6]: binds
14 | S1_F11 (ssDNA) DNA: CCAGTGTAGACTACTCAATGCGTGGGAAGGGTGGGCGGGAGCATTGATAACTTCGGAGGAGCGTACTATCCACAGGTCAACC |  | binds | binds | no binding | 
15 | S1_F5 (ssDNA) DNA: CCAGTGTAGACTACTCAATGCGTGTGGTAACCTTGACCTTGGATTATGGGTTTGGGCGGGCGGGTACTATCCACAGGTCAACC |  | binds | binds | no binding | 
16 | S1_A3-A (ssDNA) DNA: CCAGTGTAGACTACTCAATGCGTGGGAAGGGTGGGTGGGAGCATTGATAACTCGGAGGAGTGTACTATCCACAGGTCAACC |  |  |  |  | binding result ([3]; label: 5'-biotin): binds; binding result ([4]; label: 5'-biotin): no binding; binding result [8]: binds; binding result ([5]; label: 5' biotin): binds
17 | S1_F12 (ssDNA) DNA: CCAGTGTAGACTACTCAATGCGTGGGAAGGGAGGGCGGGAGCATTGATAACTCGGAGGAGCGTACTATCCACAGGTCAACC |  | binds | binds | no binding | 
18 | S1_F3-B (ssDNA) DNA: CCAGTGTAGACTACTCAATGCGTGGGATGGGTGGGTGGGAGCATTGATAACTCGGAGGAGCGTACTATCCACAGGTCAACC |  | binds | binds | no binding | 
19 | S2_B1_F12 (ssDNA) DNA: CCAGTGTAGACTACTCAATGCCGTGGACTGGTCGGGTTTGGATTCGGCAGATGAATCAGTAGTA | binds |  |  |  | 
20 | S2_A2 (ssDNA) DNA: CCAGTGTAGACTACTCAATGCCGATGGGTCGGGGGGGTGGGTAGGCATTGATCGCTCCTTTCGTACTATCCACAGGTCAACC | binds |  |  |  | binding result [5]: binds
21 | S1_D2 (ssDNA) DNA: CCAGTGTAGACTACTCAATGCTAGGTCCGTGGGATGGGTGGGGGGGAGGACCAGCCAGCGAGTACTATCCACAGGTCAACC |  | binds | binds | no binding | 
22 | S1_A6 (ssDNA) DNA: CCAGTGTAGACTACTCAATGCTGTTATGACTTGACCTTGGGTTATGGGTTTGGGCGGGAGGGTACTATCCACAGGTCAACC |  |  |  |  | binding result ([3]; label: 5'-biotin): binds; binding result ([4]; label: 5'-biotin): no binding; binding result [8]: binds
23 | S1_E10 (ssDNA) DNA: CCAGTGTAGACTACTCAATGCTGTGTTGACTTGACCTTGGATTATGGGTTTGGGCGGGAGGGTACTATCCACAGGTCAACC |  | binds | binds | no binding | 
24 | S1_D4 (ssDNA) DNA: CCAGTGTAGACTACTCAATGCGGCTTCGGGAGGGGGGGCGGGTAAAAAGCCCATTGCCCTAGTACTATCCACAGGTCAACC |  | binds | binds | no binding | 
25 | S1_E9 (ssDNA) DNA: CCAGTGTAGACTACTCAATGCGGCTTCGAGAGGGGGGGCGGGTAAAAAGTCCATTGCCCTAGTACTATCCACAGGTCAACC |  | binds | binds | no binding | 
